Reference: the supplement of paper PMC9170038

Test system: MS2 coat protein
Assay: apparent KD of MS2 coat protein; higher = weaker reporter binding
Conditions: Eterna round: R107
In short: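 For every design, apparent KD is the median of normalised binding-curve fits from its clusters. The RNA switches were transcribed on-chip from Illumina sequencing clusters and titrated with SNAP-549-labelled MS2 coat protein (twofold steps, 0.7 or 1.5 nM to 3 µM; 0.8–1.5 h to 10–20 min per step). Titrations used 100 mM Tris-HCl pH 7.5, 80 mM KCl, 4 mM MgCl2, without or with constant ligand.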

[1] = input ligand: theophylline 20 uM
[2] = input ligand: tryptophan 2.4 mM
[3] = input ligand: theophylline 2 mM

| Sequence | apparent KD of MS2 coat protein (input ligand: arginine 13.2 mM) [nM] | apparent KD of MS2 coat protein [1] [nM] | apparent KD of MS2 coat protein [2] [nM] | apparent KD of MS2 coat protein (input ligand: none) [nM] | apparent KD of MS2 coat protein [3] [nM] |
| --- | --- | --- | --- | --- | --- |
| CGAUAUGAGGUCGAUACCAGCAGCUUCAAGCACAUGAGGAUCACCCAUGUCCAUUUUACUUGCCCUUGGCAGCGACUUUGGAAAC [theeternabot_sameState_MS2_Theo_B_23] | 36.2 | 34.9 | 38.4 |  |  |
| AGCGGCUCGAAAGAGUCGCACUCAUGUGAAGGAGCGCCCGUAAGGGCAGGUAGGUCGCACAUGAGGAUCACCCAUGUACCUUCUA [MAT - Exclusion Arginine A - Mod of Eli - D20] | 87.1 | 255 | 241 | 205 | 316 |
| AAGACCAGGAGGUGAUCCUAACUGGUCCAACGAGGACCGGUACGGCCGCCACUCGAAUAAACAUGAGGAUCACCCAUGUAAUAAU [T''-M-T'-T-MS2] | 58.7 | 101 |  |  | 90.1 |
| CCUGAUGAGUCGGCCGCCACUCCAGUUGUAUUACAGGUUUUCGUAGACAUGAGGAUCACCCAUGUGAGGACCGGGACACACACAG [theeternabot_exclusion_MS2_Trp_B_21] | 11.7 | 23.8 | 17.2 | 11.3 | 17.4 |
| AACAUGAGGAUCACCCAUGUCCCAUGUGAACGAGGACCGGUACGGCCGCCACUCGAAUAAGGCGGCACAUGAGGAUCACCCACAU [AstrosSSTry#1] | 101 | 223 |  |  | 206 |
| GGUAUAUAGGCGGCCGCCACUGAUUUUCAUAUAUAUAUAACAUGAGGAUCACCCAUGUAGAUAUACAGGACCGGGCCUAUAUAUU [aaaC] | 16.1 | 17.7 |  |  | 16.4 |
| GGGACACCGGGAAGGAGCGCAUCCAAACCACACAUGAGGAUCACCCAUGUAUAAAUAUGCAUGCAGGUAGGUCGCCCGAUGUCUC [Anrearradi] | 60.9 | 121 | 110 | 90.7 | 120 |
| AAAAUCCUACCUGAGGAUCACCCGGGUGAAGGAGCGCCCGAAAGGGCAGGUAGGUCGCACCUGAGGAUCACCCUGGUAACCUAAA [ArgEX 12 #DoubleMS2 #OpenEnded #AlternativeMS2] | 41.7 | 187 | 159 | 179 | 454 |
| UGCGACAAGUGAAUACUUUGUUCUAGAGAUACCAGUUCCCGAGUGAACCCUUGGCAGCUCCCAACAUGAGGAUCACCCAUGUAUU [theeternabot_exclusion_MS2_Theo_A_24] | 15.9 | 20 | 13.5 |  |  |
| CACGGCCAUGAGGAUCACCCAUGGAAUAAUCGAGGACCGGUACGGCCGCCACUCGUGGACCGUGACCUGUACGAAAAGUGCAGGA | 20.8 | 31.7 | 10 | 26.5 | 26.9 |
| CAGGUCAGGGCGGCCGCCACUGUGGCUACGGUACAUGAGGAUCACCCAUGUUUGUGGUUGAUCUACAGGACCGGGCCCUAACACG [Beabe] | 1080 | 214 | 126 | 430 | 757 |
| UCGUGAGUUUCGGAUACCAGUGUUGUCGAUACAUGAGGAUCACCCAUGUUAGAGGAUGUACACCCUUGGCAGCCGGCUGUGGCGG [lplmullin] | 15.8 | 16.1 | 17.3 |  |  |
| CAAACAUGAGGAUCACCCAUGUAAUCAGAUACCAGUGACGAAAGUCACCCUUGGCAGCUGAUUACUUUAGUUCUAAGGUGUUUGA [EThA NP+V+V2 #5 +-Same Structure] | 53.6 | 116 | 38.7 |  |  |
| AUGGACGACGAUCUGGGAAAACCAGAUCGACGAGGACCGGUACGGCCGCCACUCGUGUUUAUUUAACAUGAGGAUCACCCAUGUA [#13 Tryptophan A Same State] | 34 | 55.7 |  |  | 65.5 |
| GCUGUACCAUGAAGGAGCGCUUUAAUUAUAGAAGAUACAUGAGGAUCACCCAUGUUCCUCGAGCAGGUAGGUCGCAUGGUACAGC [SSAB #18] | 25.4 | 33 | 22.9 | 20.3 | 27 |
| AUGCGGUGCGGAAGGAGCGAGUUUGCCUAUUUACAUGAGGAUCACCCAUGUCCUAAUGGGACUCAGGUAGGUCGCCGUUGUCGCA [Same State Arginine B GF 29] | 47.7 | 65.5 | 52.1 | 45.5 | 49.9 |
| UUUUAGCAUCGAAGGAGCGCUGGUGAAACUGACUAUGGAACAUGAGGAUCACCCAUGUGCUAGCAGGUAGGUCGCGAUGCUAUUU [SSAB NP+V+V2 #10] | 16.9 | 20.7 | 14.9 | 17.6 | 18.1 |
| UCGCCCAGAAAGGAUUGCUGGGAUAUGGAAGGAGCGCUGAUGCCAGCAGGUAGGUCGCCAACGGACAUGAGGAUCACCCAUGUAC [Same State - Arginine A (Freestyle 6)] | 16.7 | 28.7 | 20.9 | 19.8 | 21.1 |
